Ten molecules from publication PMC3103431, “The four Zn fingers of MBNL1 provide a flexible platform for recognition of its RNA binding elements” can be followed below.

A value given as a limit tells only on which side of the number the result lay.

Data set [1] concerns the target T1, MBNL1 (2-260) (Homo sapiens, UniProt Q9NR56 2-260).
T1 sequence: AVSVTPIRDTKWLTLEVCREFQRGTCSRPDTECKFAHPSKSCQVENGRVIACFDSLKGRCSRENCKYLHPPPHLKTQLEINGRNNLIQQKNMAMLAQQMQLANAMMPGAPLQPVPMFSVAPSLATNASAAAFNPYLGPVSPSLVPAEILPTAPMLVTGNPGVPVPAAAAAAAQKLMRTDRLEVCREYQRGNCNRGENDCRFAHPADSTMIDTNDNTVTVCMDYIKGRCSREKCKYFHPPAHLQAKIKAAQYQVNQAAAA
The data set is described as follows: EMSA; 5 mM Mg2+; smearing; 100 mM NaCl, 21 mM Tris pH 7.5, 5 mM MgCl2, 0.1 mM EDTA, 2 mg/mL BSA, 0.1 mg/mL heparin, 0.5 mM BME, 5 mM DTT, 0.02% Triton X-100, 10% glycerol, 0.02 nM RNA, room temperature 30 min. Conditions: protein: recombinant; tags: GST tag removed; label: 5' 32P; single-stranded.

Data set [2] addresses T1, MBNL1 (2-260). Put plainly: EMSA; 5 mM Mg2+; 100 mM NaCl, 21 mM Tris pH 7.5, 5 mM MgCl2, 0.1 mM EDTA, 2 mg/mL BSA, 0.1 mg/mL heparin, 0.5 mM BME, 5 mM DTT, 0.02% Triton X-100, 10% glycerol, 0.02 nM RNA, room temperature 30 min. Conditions: protein: recombinant; tags: GST tag removed; label: 5' 32P; single-stranded.
The target of data set [3] is T1, MBNL1 (2-260). The description is as above. Conditions: protein: recombinant; tags: GST tag removed; label: 5' 32P; single-stranded. This is another data set of the same source.
Data set [4] concerns the target T1, MBNL1 (2-260). The data set is described as follows: EMSA; 5 mM Mg2+; range for 2, 3 and 4 GC RNAs; 100 mM NaCl, 21 mM Tris pH 7.5, 5 mM MgCl2, 0.1 mM EDTA, 2 mg/mL BSA, 0.1 mg/mL heparin, 0.5 mM BME, 5 mM DTT, 0.02% Triton X-100, 10% glycerol, 0.02 nM RNA, room temperature 30 min. Conditions: protein: recombinant; tags: GST tag removed; label: 5' 32P; single-stranded.

The target of data set [5] is T1, MBNL1 (2-260). The data set is described as follows: EMSA; 5 mM Mg2+; wild type level; 100 mM NaCl, 21 mM Tris pH 7.5, 5 mM MgCl2, 0.1 mM EDTA, 2 mg/mL BSA, 0.1 mg/mL heparin, 0.5 mM BME, 5 mM DTT, 0.02% Triton X-100, 10% glycerol, 0.02 nM RNA, room temperature 30 min. The conditions noted are these: protein: recombinant; tags: GST tag removed; label: 5' 32P; single-stranded.

Data set [6] deals with T1, MBNL1 (2-260). Put plainly: EMSA; 5 mM Mg2+; smearing; 100 mM NaCl, 21 mM Tris pH 7.5, 5 mM MgCl2, 0.1 mM EDTA, 2 mg/mL BSA, 0.1 mg/mL heparin, 0.5 mM BME, 5 mM DTT, 0.02% Triton X-100, 10% glycerol, 0.02 nM RNA, room temperature 30 min. The conditions noted are these: protein: recombinant; tags: GST tag removed; label: 5' 32P; single-stranded. This is another data set of the same source.

In data set [7] the target is T1, MBNL1 (2-260). The data set is described as follows: competition; vs 32P-2GC 0.02 nM, 33.3 nM MBNL1; 100 mM NaCl, 21 mM Tris pH 7.5, 5 mM MgCl2, 0.1 mM EDTA, 2 mg/mL BSA, 0.1 mg/mL heparin, 0.5 mM BME, 5 mM DTT, 0.02% Triton X-100, 10% glycerol, 0.02 nM RNA, room temperature 30 min. The conditions noted are these: protein: recombinant; tags: GST tag removed; label: 5' 32P; single-stranded.

Data set [8] deals with T1, MBNL1 (2-260). Put plainly: EMSA; 5 mM Mg2+; 100 mM NaCl, 21 mM Tris pH 7.5, 5 mM MgCl2, 0.1 mM EDTA, 2 mg/mL BSA, 0.1 mg/mL heparin, 0.5 mM BME, 5 mM DTT, 0.02% Triton X-100, 10% glycerol, 0.02 nM RNA, room temperature 30 min. Conditions: protein: recombinant, tags: GST tag removed, label: 5' 32P.

As for UCCUUUUUUUUUCCUGCUUUUUUUUUCCU (ssRNA) [1GC#2], the binding signal in data set [1] is ~5 fold higher Kd than the 2-4 GC 29-nt RNAs. As to AAUGCUAAAAAAAAAAAUGCUAA (ssRNA) [A4], in data set [2], the binding signal is greater than 10 fold weaker than 2GC.

Take UUUGCUUUUUUUUUUUUUGCUUU (ssRNA) [2GC]: in data set [3], the Kd was determined as 11 nM. Turning to UUCGCCUUUUUUUUUUUCGCCUU (ssRNA) [CGCC], the dissociation constant (Kd) in data set [3] was 7 nM.

Take UGCUUUUUUUUUGCUGCUUUUUUUUUGCU (ssRNA) [4GC]: the equilibrium dissociation constant (Kd) in data set [4] was found to be 3.16 nM.

On to CCUGCUCCCCCCCCCCCUGCUCC (ssRNA) [C4], for which the binding result in data set [5] was “binds”. Regarding UUUGCUUUUUUUUUUUUUUUUUU (ssRNA) [1GC], the Kd in data set [6] came to 45 nM. In addition, the binding signal in data set [7] is 15 fold weaker than 2GC. Turning to CCCGCCCCCCCCCCCCCCGCCCC (ssRNA) [C], in data set [3], the Kd came to 111 nM.

Take UUGGCGUUUUUUUUUUUGGCGUU (ssRNA) [GGCG]: the binding signal in data set [8] came to 40 fold weaker than 2GC. As to UUAGCAUUUUUUUUUUUAGCAUU (ssRNA) [AGCA], the binding signal in data set [8] (single-stranded) came to 5 fold weaker than 2GC.
